# Measured values published in patent US6838433B2, “IL-6 antagonist peptides” (Applied Research Systems ARS Holding N.V., priority 1998, dated 2005).
# Target: T1, gp130-ICD (Homo sapiens, UniProt P40189)
# T1 construct: in order to isolate the intracellular portion of human gp130; expressed in transfected cells; host or cells: Saccharomyces cerevisiae strain CG-1945; cDNA obtained by RT-PCR from HepG2 cells and cloned into pGADGH (also pAS2-1)
# T1 sequence (P40189 642-918 limits assumed): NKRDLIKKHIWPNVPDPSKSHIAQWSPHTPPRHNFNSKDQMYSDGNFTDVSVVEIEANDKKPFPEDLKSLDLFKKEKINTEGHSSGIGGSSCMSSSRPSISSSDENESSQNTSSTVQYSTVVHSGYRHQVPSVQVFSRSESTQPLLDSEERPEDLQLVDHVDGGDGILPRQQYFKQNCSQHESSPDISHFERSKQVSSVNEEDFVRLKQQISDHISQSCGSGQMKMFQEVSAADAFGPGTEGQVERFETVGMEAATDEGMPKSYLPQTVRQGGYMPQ
# Experiment: Liquid β-galactosidase (LacZ) assay in yeast two-hybrid system
# Format: cell-based
# Details: combination of clone E and gp130-ICD in yeast cells; three independent experiments
# Excerpt: We have also performed liquid β-galactosidase assays to quantify transcriptional activity: as shown in the FIG. 5, in the presence of gp130-ICD/GAL4AD the fusion protein clone E/GAL4BD was able to produce a transcriptional activity of lacZ gene about 2 to 3 fold higher than in the absence of gp130-ICD/GAL4AD, thus confirming the interaction detected after the first selection.
# Liquid β-Galactosidase Assay
# We prepared 5-ml overnight culture in liquid SD selection medium appropriate for plasmids.
# We transferred 2 ml of the culture to 8 ml of YPD and incubate at 30° C. for 3-5 hours until the cells are in the mid-log phase (O.D.600=0.5-0.8).
# The culture was centrifuged at 14,000 rpm for 30 seconds: in the next step, we remove the supernatants, wash the cells with a volume of Z-buffer and resuspend the pellet in 900 μl of Z buffer.
# Immediately, two or more freeze/thaw cycles were performed, placing the tubes in liquid nitrogen and in a 37° C. water bath for 0.5-1 minute. […]
# The reaction was stopped by adding 0.4 ml of 1 M Na2CO3: we recorded the time needed to obtain the results and O.D.420 of the samples.
# β-galactosidase units were calculated by this formula: β-galactosidase units=1,000×O.D.420/(t×V×O.D.600) […]
substance,measurement,value
"Clone E: peptide isolated by THS, homology group II, SEQ ID NO:6; homology with JAK1 JH4 domain (WGDNEWWRSEPHKMEL)",β-galactosidase (LacZ) activity in liquid assay,about 3 units/ml
